From paper PMC6277001 (Molecular cancer research : MCR, 2018)

Target: T1, GST-β-catenin^4A (UniProt P35222 1-781, S33A | S37A | T41A | S45A)
T1 sequence: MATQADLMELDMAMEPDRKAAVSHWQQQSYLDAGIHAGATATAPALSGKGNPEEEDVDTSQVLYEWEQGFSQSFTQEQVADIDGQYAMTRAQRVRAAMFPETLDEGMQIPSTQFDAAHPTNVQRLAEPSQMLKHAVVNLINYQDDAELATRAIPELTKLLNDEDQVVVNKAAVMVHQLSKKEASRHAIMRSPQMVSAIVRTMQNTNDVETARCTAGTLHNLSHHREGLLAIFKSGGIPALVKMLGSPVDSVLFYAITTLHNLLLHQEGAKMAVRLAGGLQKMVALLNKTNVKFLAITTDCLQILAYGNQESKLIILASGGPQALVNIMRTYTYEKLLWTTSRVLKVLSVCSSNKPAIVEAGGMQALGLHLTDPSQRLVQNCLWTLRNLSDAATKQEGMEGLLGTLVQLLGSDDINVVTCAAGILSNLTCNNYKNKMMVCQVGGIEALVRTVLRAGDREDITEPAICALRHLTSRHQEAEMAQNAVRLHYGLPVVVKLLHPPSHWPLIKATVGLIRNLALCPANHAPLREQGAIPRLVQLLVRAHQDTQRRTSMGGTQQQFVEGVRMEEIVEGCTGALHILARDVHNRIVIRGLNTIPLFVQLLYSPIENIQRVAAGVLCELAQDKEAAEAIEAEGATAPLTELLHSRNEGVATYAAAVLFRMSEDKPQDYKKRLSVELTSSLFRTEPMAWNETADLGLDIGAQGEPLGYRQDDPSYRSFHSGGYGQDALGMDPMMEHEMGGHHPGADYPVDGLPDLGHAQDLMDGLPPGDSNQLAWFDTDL
Test: pull-down

B1: 6xHis-FLYWCH1 (natural protein)
chain: MPLPEPSEQEGESVKAGQEPSPKPGTDVIPAAPRKPREFSKLVLLTASDQDEDGVGSKPQEVHCVLSLEMAGPATLASTLQILPVEEQGGVVQPALEMPEQKCSKLDAAAPQSLEFLRTPFGGRLLVLESFLYKQEKAVGDKVYWKCRQHAELGCRGRAITRGLRATVMRGHCHAPDEQGLEARRQREKLPSLALPEGLGEPQGPEGPGGRVEEPLEGVGPWQCPEEPEPTPGLVLSKPALEEEEAPRALSLLSLPPKKRSILGLGQARPLEFLRTCYGGSFLVHESFLYKREKAVGDKVYWTCRDHALHGCRSRAITQGQRVTVMRGHCHQPDMEGLEARRQQEKAVETLQAGQDGPGSQVDTLLRGVDSLLYRRGPGPLTLTRPRPRKRAKVEDQELPTQPEAPDEHQDMDADPGGPEFLKTPLGGSFLVYESFLYRREKAAGEKVYWTCRDQARMGCRSRAITQGRRVTVMRGHCHPPDLGGLEALRQREKRPNTAQRGSPGGPEFLKTPLGGSFLVYESFLYRREKAAGEKVYWTCRDQARMGCRSRAITQGRRVMVMRRHCHPPDLGGLEALRQREHFPNLAQWDSPDPLRPLEFLRTSLGGRFLVHESFLYRKEKAAGEKVYWMCRDQARLGCRSRAITQGHRIMVMRSHCHQPDLAGLEALRQRERLPTTAQQEDPEKIQVQLCFKTCSPESQQIYGDIKDVRLDGESQ
  binding result: binds
